From US20200071687 come the findings set out here.

In data set [1] the target is T1, RNase A, P61823.
T1 chain: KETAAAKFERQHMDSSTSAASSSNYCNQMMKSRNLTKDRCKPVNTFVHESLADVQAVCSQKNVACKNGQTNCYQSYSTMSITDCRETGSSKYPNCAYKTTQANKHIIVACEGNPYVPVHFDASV

The target of data set [2] is restriction enzyme Ase I.
The target in data set [3] is catalase.

B1: proteinase K (protein)
chain: AAQTNAPWGLARISSTSPGTSTYYYDESAGQGSCVYVIDTGIEASHPEFEGRAQMVKTYYYSSRDGNGHGTHCAGTVGSRTYGVAKKTQLFGVKVLDDNGSGQYSTIIAGMDFVASDKNNRNCPKGVVASLSLGGGYSSSVNSAAARLQSSGVMVAVAAGNNNADARNYSPASEPSVCTVGASDRYDRRSSFSNYGSVLDIFGPGTSILSTWIGGSTRSISGTSMATPHVAGLAAYLMTLGKTTAASACRYIADTANKGDLSNIPFGTVNLLAYNNYQA
B1: in data set [1], the “degradation of RNaseA, 1 hour at 37° C. (SDS-PAGE, Coomassie)” value is “both the subtilisin B24 variant and proteinase K can degrade RNaseA”. In addition, the “digestion of Ase I, 1 hour at 37° C. (SDS-PAGE, Coomassie)” value in data set [2] is listed as “while Proteinase K cannot”.

B2: Subtilisin Carlsberg variant B24 (protein)
chain: AQTVPYGIPLIKADKVQAQGFKNVKVAVLDTGIQASHPDLNVVGGASFVAGEAYNTDGNGHGTHVAGTVAALGNTTGVLGVAPSVSLYAVKVLNSSGSGSYSGIVSGIEWATTNGMDVINMSLGGASGSTAMKQAVDNAYAKGVVVVAAGNSGSSGNTNTIGYPAKYDSVIAVGAVDSNSNRASFSSVGAELEVMAPGAGYSTYPTNTYATLNGTSMASPHVAGAAALIMSKHPNLSASQVRNRLSSTATYLGSSFYYGKGLINVEAAAPHHHHH
Turning to B2, in data set [1], the “degradation of RNaseA, 1 hour at 37° C. (SDS-PAGE, Coomassie)” value was “both the subtilisin B24 variant and proteinase K can degrade RNaseA”. Also, the “digestion of the substrate protein in the presence of detergents (SDS-PAGE, Coomassie)” value in data set [1] was “can digest catalase (FIG. 11A) and RNAase (FIG. 11B) up to at least a 2.0% SDS concentration; catalase (FIG. 11C) and RNAase (FIG. 11D) up to at least a 2.0% Triton X-100 concentration; and RNAase (FIG. 11E) up to at least a 2% CTAB concentration”; in data set [3], “can digest catalase (FIG. 11A) and RNAase (FIG. 11B) up to at least a 2.0% SDS concentration; catalase (FIG. 11C) and RNAase (FIG. 11D) up to at least a 2.0% Triton X-100 concentration”. Also, the “digestion of Ase I, 1 hour at 37° C. (SDS-PAGE, Coomassie)” value in data set [2] was “subtilisin B24 variant can digest Ase I in one hour at 37 °C”.
